Measurements reported in article PMC12737490, “Beta Toxins Isolated from the Scorpion Centruroides hirsutipalpus (Scorpiones; Buthidae) Affect the Function of Sodium Channels of Mammals” (Toxins, 2025).

B1: Chirp7 (peptide)
chain: KEGYLVNHSTGCKYECFKLGDNDYCLRECRQQYGKGAGGYCYAFGCWCTHLYEQAVVWPLPKKTCN-NH2
modifications: disulfide (positions not given here); also: four disulfide bridges, pairing not given here
B2: Chirp9 (peptide)
chain: KEGYIVDYHTGCKYTCAKLGDNDYCVRECRLRYYQSAHGYCYAFACWCTHLYEAAVVWPLPNKRCK-NH2
modifications: disulfide (positions not given here); also: four disulfide bridges, pairing not given here

Assays:
hNav 1.2 = experiment: Patch-clamp macroscopic sodium currents, hNav1.2 in HEK cells; type: cell-based, human; settings: 200 nM toxin; for I/Imax (residual peak current) / slope of activation after toxin / V0.5 of activation after toxin / slope of inactivation after toxin / V0.5 of inactivation after toxin: mean ± SE of 5 cells (3–5 cells); for slope of activation after toxin: control 5.4± 0.3 (Chirp7 cells), 7.6 ± 0.4 (Chirp9 cells); for slope of activation after toxin / slope of inactivation after toxin / V0.5 of inactivation after toxin: Chirp9 value marked * (p<0.05); for V0.5 of activation after toxin: control -21.1 ± 0.4 (Chirp7 cells), -26.5 ± 0.5 (Chirp9 cells); for slope of inactivation after toxin / V0.5 of inactivation after toxin: steady-state inactivation; for slope of inactivation after toxin: control 6 ± 0.2 (Chirp7 cells), 5.6 ± 0.2 (Chirp9 cells); for V0.5 of inactivation after toxin: control -56.1 ± 0.2 (Chirp7 cells), -55.5 ± 0.3 (Chirp9 cells)
Description: Recordings of macroscopic currents from sodium channels. Human voltage-gated sodium channels (hNav 1.1, hNav 1.2 and hNa 1.6) were stably expressed in HEK cells. Cells were maintained at 37 ◦C with 5% CO2 in a humidified atmosphere. The growth medium consisted of high-glucose Dulbecco’s Modified Eagle Medium (DMEM, Sigma Aldrich, Naucalpan de Juarez, Estado de Mexico, Mexico), supplemented with 10% Fetal Bovine Serum (ByProductos, Guadalajara, Jalisco, Mexico) and 500 μg/mL of the antibiotic G418 (Sigma Aldrich, Naucalpan de Juarez, Estado de Mexico, Mexico). The extracellular solution was composed of (in mM): 130 NaCl, 5 KCl, 2 CaCl2, 2 MgCl2, 10 HEPES, and 5 glucose, with the pH adjusted to 7.3 using NaOH. The intracellular solution contained (in mM): 105 CsF, 27 CsCl, 5 NaCl, 2 MgCl2, 10 EGTA, and 10 HEPES, with the pH also adjusted to 7.3 with CsOH. Solutions were delivered to the patched cell via an active perfusion system connected to a variable-speed syringe pump (Model A-99, Razel Scientific Instruments, Fairfax, VT, USA), with a perfusion rate of approximately 1 μL/s. Patch pipettes were made from borosilicate glass capillaries (Warner Instruments, Hamden, CT, USA) using a vertical puller (Model P-30, Sutter Instrument, Novato, CA, USA). The pipettes were filled with the internal solution and had resistance ranging from 1.5 and 3 MΩ. Sodium currents were elicited by 100 ms depolarization ranging from −110 to 30 mV in 10 mV steps, followed by a fully activating step at −10 mV for 50 ms. To better appreciate the effects of scorpion β-sodium toxins, channels were primed by means of a 5 ms depolarization at 50 mV, applied 50 ms before the depolarization steps, as previously described in Cestele et al. 1998 [17]. To ensure complete recovery from inactivation, cells were maintained at −120 mV for 280 ms before each step, while holding potential was set at −100 mV. Currents were acquired using a MultiClamp 700A amplifier and a DigiData 1440A digitizer (Molecular Devices, CA, USA).
For the activation curve, conductance (G) was calculated from current (I) elicited during depolarization steps by means of the equation G = I/(Vm − ENa), where I is the current elicited at membrane potential Vm, and ENa is the reversal potential of Na^+ ions, calculated experimentally for each cell. Conductance was normalized to its maximal level and plotted against the corresponding membrane potential. For the steady-state inactivation curve, currents elicited at −10 mV (after preconditioning depolarization from −110 to 30 mV) were plotted against the preconditioning potentials. Data from activation and from steady-state inactivation were fitted using a Boltzmann equation: y = A2 + (A1 − A2)/(1 + exp((x − x0)/dx)) where A1 is the initial value, A2 is the final value, x0 is the potential of half-activation (or half-inactivation) and dx is the slope. […]
Figure S1. Recordings of macroscopic currents from sodium channels. Sodium currents in B) were elicited by the stimulation protocol depicted in A): currents were elicited by 100 ms depolarization ranging from -110 to 30 mV in 10 mV steps, followed by a fully activating step at -10 mV for 50 ms.
A 5 ms depolarization at 50 mV was applied 50 ms before the depolarization steps to primed the channels. Peak currents obtained during the step depolarization from -110 to 30 mV (C and D, black circle in control and open circle after toxin application) were used to calculate the conductance and construct the activation curves. Currents recorded during the step at -10 mV (C and D, black square in control and open square for the toxin), were used to construct the inactivation curves. […]

CD1 strain albino mice = experiment: Toxicity and lethality tests in mice (intraperitoneal); type: in vivo, Mus musculus; parameters: key to Toxicity: Non-toxic: “non-toxic” when the mice exhibited normal physiological and behavioral patterns indistinguishable from the control group; Toxic: “toxic” when the animals developed signs of intoxication, such as excitability, excessive salivation, transient paralysis, breathing difficulty, diarrhea, impaired coordination or movement, or excessive tearing. These symptoms would appear after administration but fully resolve within 24 h without lasting effects; Lethal: “lethal” when the mice showed severe manifestations of intoxication, including progressive paralysis, marked respiratory distress, convulsions, or complete loss of mobility, leading to death during the observation period as a direct consequence of exposure; settings: 20 g CD1 mice; for symptoms in affected animals / time to death after injection / lethality in murine models: 30 µg in 100 µL PBS; for lethality in murine models / Toxicity: monitored 24 h, in triplicate; for Toxicity: 30 µg of each fraction in 100 µL PBS
Description: Toxicity assays. Toxicity and lethality tests of FPLC and HPLC fractions containing the toxins were conducted on CD1 strain albino mice (Mus musculus) weighing 20 g. The mice received intraperitoneal injections of 30 µg of each fraction diluted in 100 µL of Phosphate-buffered saline (PBS), while control mice were injected with sterile water. The mice were monitored for 24 h. […] A treatment was categorized as “toxic” when the animals developed signs of intoxication, such as excitability, excessive salivation, transient paralysis, breathing difficulty, diarrhea, impaired coordination or movement, or excessive tearing. These symptoms would appear after administration but fully resolve within 24 h without lasting effects. […] The experiments were conducted in triplicate. The Bioethics Committee approved the Animal Welfare protocol used in this study (Project 413).

Row | Molecule | I/Imax (residual peak current) (hNav 1.2) | slope of activation after toxin (hNav 1.2) | V0.5 of activation after toxin (hNav 1.2) [mV] | slope of inactivation after toxin (hNav 1.2) | V0.5 of inactivation after toxin (hNav 1.2) [mV] | symptoms in affected animals (CD1 strain albino mice) | time to death after injection (CD1 strain albino mice) | lethality in murine models (CD1 strain albino mice) | lethality in murine models (CD1 strain albino mice; listed as FII.7) | Toxicity (CD1 strain albino mice) | effect on inactivation (hNav 1.2) | lethality in murine models (CD1 strain albino mice; listed as FII.9)
1 | B1 | 1 ± 0.02 | 5.9 ± 0.3 | -22 ± 0.4 | 6.2 ± 0.2 | -56.9 ± 0.2 | hyperexcitability, tremors, piloerection, hypersalivation, transient paralysis, dyspnea, motor incoordination, severe respiratory distress, and, ultimately, death | approximately 20 min | pronounced lethality | particularly lethal effects | Lethal |  | 
2 | B2 | 0.85 ± 0.07 | 10.8 ± 0.4 | -26.8 ± 0.5 | 7.6 ± 0.4 | -61.8 ± 0.4 | hyperexcitability, tremors, piloerection, hypersalivation, transient paralysis, dyspnea, motor incoordination, severe respiratory distress, and, ultimately, death | approximately 20 min | pronounced lethality |  | Lethal | shifted inactivation to more negative potential | particularly lethal effects
